Experimental data from PMC4477937, “Alpha-2-Macroglobulin Is Acutely Sensitive to Freezing and Lyophilization: Implications for Structural and Functional Studies” (PLoS ONE, 2015).

Tests used:
Creatine phosphokinase = Creatine phosphokinase (UniProt P00563 1-381); experiment: cell-based or functional assay
[1] = biological target: the molecule itself; experiment: native gel or EMSA; native PAGE, NuPAGE 3–8% Tris-acetate, Tris-glycine running buffer, stained with InstantBlue; purified α2M after storage (4°C for months, -20°C, rapid freezing, lyophilization)

Sequence of Creatine phosphokinase (P00563 whole entry): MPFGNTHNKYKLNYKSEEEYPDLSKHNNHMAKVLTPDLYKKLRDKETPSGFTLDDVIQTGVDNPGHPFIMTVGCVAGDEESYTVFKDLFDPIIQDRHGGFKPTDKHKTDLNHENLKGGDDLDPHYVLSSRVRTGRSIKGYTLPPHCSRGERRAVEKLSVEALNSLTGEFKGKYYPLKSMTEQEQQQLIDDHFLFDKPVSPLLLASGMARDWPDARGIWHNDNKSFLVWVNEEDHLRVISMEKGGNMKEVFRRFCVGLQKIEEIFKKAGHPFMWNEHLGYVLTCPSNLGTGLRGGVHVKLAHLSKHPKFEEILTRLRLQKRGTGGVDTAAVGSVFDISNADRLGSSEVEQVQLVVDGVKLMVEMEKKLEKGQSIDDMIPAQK

B1: Alpha-2-macroglobulin (natural protein, human, UniProt P01023 24-1474, looked up)
chain: SVSGKPQYMVLVPSLLHTETTEKGCVLLSYLNETVTVSASLESVRGNRSLFTDLEAENDVLHCVAFAVPKSSSNEEVMFLTVQVKGPTQEFKKRTTVMVKNEDSLVFVQTDKSIYKPGQTVKFRVVSMDENFHPLNELIPLVYIQDPKGNRIAQWQSFQLEGGLKQFSFPLSSEPFQGSYKVVVQKKSGGRTEHPFTVEEFVLPKFEVQVTVPKIITILEEEMNVSVCGLYTYGKPVPGHVTVSICRKYSDASDCHGEDSQAFCEKFSGQLNSHGCFYQQVKTKVFQLKRKEYEMKLHTEAQIQEEGTVVELTGRQSSEITRTITKLSFVKVDSHFRQGIPFFGQVRLVDGKGVPIPNKVIFIRGNEANYYSNATTDEHGLVQFSINTTNVMGTSLTVRVNYKDRSPCYGYQWVSEEHEEAHHTAYLVFSPSKSFVHLEPMSHELPCGHTQTVQAHYILNGGTLLGLKKLSFYYLIMAKGGIVRTGTHGLLVKQEDMKGHFSISIPVKSDIAPVARLLIYAVLPTGDVIGDSAKYDVENCLANKVDLSFSPSQSLPASHAHLRVTAAPQSVCALRAVDQSVLLMKPDAELSASSVYNLLPEKDLTGFPGPLNDQDNEDCINRHNVYINGITYTPVSSTNEKDMYSFLEDMGLKAFTNSKIRKPKMCPQLQQYEMHGPEGLRVGFYESDVMGRGHARLVHVEEPHTETVRKYFPETWIWDLVVVNSAGVAEVGVTVPDTITEWKAGAFCLSEDAGLGISSTASLRAFQPFFVELTMPYSVIRGEAFTLKATVLNYLPKCIRVSVQLEASPAFLAVPVEKEQAPHCICANGRQTVSWAVTPKSLGNVNFTVSAEALESQELCGTEVPSVPEHGRKDTVIKPLLVEPEGLEKETTFNSLLCPSGGEVSEELSLKLPPNVVEESARASVSVLGDILGSAMQNTQNLLQMPYGCGEQNMVLFAPNIYVLDYLNETQQLTPEIKSKAIGYLNTGYQRQLNYKHYDGSYSTFGERYGRNQGNTWLTAFVLKTFAQARAYIFIDEAHITQALIWLSQRQKDNGCFRSSGSLLNNAIKGGVEDEVTLSAYITIALLEIPLTVTHPVVRNALFCLESAWKTAQEGDHGSHVYTKALLAYAFALAGNQDKRKEVLKSLNEEAVKKDNSVHWERPQKPKAPVGHFYEPQAPSAEVEMTSYVLLAYLTAQPAPTSEDLTSATNIVKWITKQQNAQGGFSSTQDTVVALHALSKYGAATFTRTGKAAQVTIQSSGTFSSKFQVDNNNRLLLQQVSLPELPGEYSMKVTGEGCVYLQTSLKYNILPEKEEFPFALGVQTLPQTCDEPKAHTSFQISLSVSYTGSRSASNMAIVDVKMVSGFIPLKPTVKMLERSNHVSRTEVSSNHVLIYLDKVSNQTLSLFFTVLQDVPVRDLKPAIVKVYDYYETDEFAIAEYNAPCSKDLGNA
notes: alpha-2-macroglobulin, human, from blood plasma; 720 kDa homotetramer of four 180 kDa subunits, paired by disulfide bonds into dimers; Storage changes the conformation (native, transformed, dimers, higher molecular weight species); also called α2M; native α2M; source: purified from human blood plasma (Zn-charged HiTrap chelating column, Sephacryl S-300 gel filtration)
decrease in turbidity (absorbance at 595 nm) of CPK (5 μM) at 43°C over 8 hrs with α2M at a molar ratio of α2M-to-CPK of 1:15; α2M rapidly frozen in liquid nitrogen and stored at -20°C for 1 month (Creatine phosphokinase): ~50% | binding result [1]: binds
